Experimental data: patent US20210032291A1 (University of Pennsylvania, published 2021)
Bridge positions count the residues as written; N and C are the ends. Square brackets hold non-standard residues; d marks the D form. Ends that are not written are not given here. Trp(1-Me) = Cn1cc(C[C@H](N)C(=O)O)c2ccccc21; NMeI = CC[C@H](C)[C@H](NC)C(=O)O; Orn = NCCC[C@H](N)C(=O)O; Sar = CNCC(=O)O

B1: Cp40 (6Asn) (peptide)
peptide: [dY]ICV[Trp(1-Me)]QNW[Sar]AHRC[NMeI]-NH2
modifications: disulfide 3-13; N-terminus assumed
SMILES: CC[C@H](C)[C@H](NC(=O)[C@H](N)Cc1ccc(O)cc1)C(=O)N[C@H]1CSSC[C@@H](C(=O)N(C)[C@H](C(N)=O)[C@@H](C)CC)NC(=O)[C@H](CCCNC(=N)N)NC(=O)[C@H](Cc2c[nH]cn2)NC(=O)[C@H](C)NC(=O)CN(C)C(=O)[C@H](Cc2c[nH]c3ccccc23)NC(=O)[C@H](CC(N)=O)NC(=O)[C@H](CCC(N)=O)NC(=O)[C@H](Cc2cn(C)c3ccccc23)NC(=O)[C@H](C(C)C)NC1=O
B2: Peptide 2: Gly-Ile-[Cys-Val-Trp(Me)-Gln-Asp-Trp-Sar-Ala-His-Arg-Cys]-mIle-NH2 (peptide)
peptide: GICV[Trp(1-Me)]QDW[Sar]AHRC[NMeI]-NH2
modifications: disulfide 3-13; N-terminus assumed
SMILES: CC[C@H](C)[C@H](NC(=O)CN)C(=O)N[C@H]1CSSC[C@@H](C(=O)N(C)[C@H](C(N)=O)[C@@H](C)CC)NC(=O)[C@H](CCCNC(=N)N)NC(=O)[C@H](Cc2c[nH]cn2)NC(=O)[C@H](C)NC(=O)CN(C)C(=O)[C@H](Cc2c[nH]c3ccccc23)NC(=O)[C@H](CC(=O)O)NC(=O)[C@H](CCC(N)=O)NC(=O)[C@H](Cc2cn(C)c3ccccc23)NC(=O)[C@H](C(C)C)NC1=O
B3: Compstatin 30 (Cp30): Sar-Ile-[Cys-Val-Trp(Me)-Gln-Asp-Trp-Sar-Ala-His-Arg-Cys]-mIle-NH2 (peptide)
peptide: GICVWQDWGAHRCI
modifications: Sar (N-methyl-Gly) at Xaa0 (N-terminus); Trp(Me) at position 4; Sar at position 8; mIle at position 13; C-terminal -NH2; cyclic via Cys2-Cys12 disulfide (compstatin position numbering)
B4: Peptide 1: Me-Ile-[Cys-Val-Trp(Me)-Gln-Asp-Trp-Sar-Ala-His-Arg-Cys]-mIle-NH2 (peptide)
peptide: Me-ICVWQDW[Sar]AHRC[NMeI]-NH2
modifications: disulfide 2-12; not fully specified (residue 4); printed as Me-Ile-[Cys-Val-Trp(Me)-Gln-Asp-Trp-Sar-Ala-His-Arg-Cys]-mIle-NH2

These binders were tested against T1, C3 protein (target in the classical-pathway complement activation ELISA) (assay: cell-based or functional assay).
For [dY]ICV[Trp(1-Me)]QNW[Sar]AH[Orn]C[NMeI]-NH2 (disulfide 3-13) [Cp40 (11Orn 6Asn)], the “IC50, peptide concentration to reach 50% inhibition of classical pathway complement activation” value was 0.36 nM. For B1, the “IC50, peptide concentration to reach 50% inhibition of classical pathway complement activation” value was 0.26 nM. [dY]ICV[Trp(1-Me)]QDW[Sar]AH[Orn]C[NMeI]-NH2 (disulfide 3-13) [Cp40 (11Orn)] was tested, and the “IC50, peptide concentration to reach 50% inhibition of classical pathway complement activation” value was 0.22 nM.

Target: T1, C3 protein (target in the …)
Experiment: cell-based or functional assay
Remark: another data set of the same source
In the case of B2, the “IC50, peptide concentration to reach 50% inhibition of classical pathway complement activation (ELISA)” value is reported as 113 nM. With B3 the “IC50, peptide concentration to reach 50% inhibition of classical pathway complement activation (ELISA)” value was 82 nM. In the case of Ac-ICV[Trp(1-Me)]QDWGAHRCT-NH2 (disulfide 2-12) [4(1MeW): Ac-Ile-[Cys-Val-Trp(Me)-Gln-Asp-Trp-Gly-Ala-His-Arg-Cys]-Thr-NH2], the “IC50, peptide concentration to reach 50% inhibition of classical pathway complement activation (ELISA)” value is reported as 132 nM. YICV[Trp(1-Me)]QDW[Sar]AHRC[NMeI]-NH2 (disulfide 3-13) [Peptide 4: Tyr-Ile-[Cys-Val-Trp(Me)-Gln-Asp-Trp-Sar-Ala-His-Arg-Cys]-mIle-NH2] was tested, and the “IC50, peptide concentration to reach 50% inhibition of classical pathway complement activation (ELISA)” value was 72 nM. With B4 the “IC50, peptide concentration to reach 50% inhibition of classical pathway complement activation (ELISA)” value was 180 nM.
